This note sets out measurements from the supplement of paper PMC10567573.

B1: CAMK2D (parent)
chain: LLKHPNIVRLHDSISEEGFHYLVF
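Note: lentivirally expressed fusions sorted by FACS into six bins by GFP to DsRed ratio, PSI derived from sequencing read proportions per bin multiplied by bin number.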

This data set covers variants of B1. Put plainly: protein stability index of a GFP-peptide fusion (GPS, HEK-293T) (PSI 1-6); higher = more stable. To be noted: c terminus: a fixed tail appended.
Take LHKHPNIVRLHDSISEEGFHYLVF [L2H]: the protein stability index was determined as 1.44.
The value for LIKHPNIVRLHDSISEEGFHYLVF [L2I] was 3.93; that for LPKHPNIVRLHDSISEEGFHYLVF [L2P] was 1.56; that for LVKHPNIVRLHDSISEEGFHYLVF [L2V] was 2.86.
Take LMKHPNIVRLHDSISEEGFHYLVF [L2M]: the protein stability index worked out at 1.77.
Consider LTKHPNIVRLHDSISEEGFHYLVF [L2T], for which the protein stability index was 1.94.
In the case of LEKHPNIVRLHDSISEEGFHYLVF [L2E], the protein stability index was found to be 2.04.
Turning to LQKHPNIVRLHDSISEEGFHYLVF [L2Q], the protein stability index stood at 1.76.
Then LWKHPNIVRLHDSISEEGFHYLVF [L2W], with 3.25; and LLKHPNIVRLHDSISCEGFHYLVF [E16C], with 2.3; and LLKHPNIVRLHDSISFEGFHYLVF [E16F], with 2.32.
For the variant LLKHPNIVRLHDSISVEGFHYLVF [E16V], the protein stability index came out at 1.39.
For LLKHPNIVRLHDSISSEGFHYLVF [E16S], the protein stability index turned out to be 1.19.
Take LLKHPNIVRLHDSISDEGFHYLVF [E16D]: the protein stability index is 1.67.
The value for LLKHPNIVRLHDSISPEGFHYLVF [E16P] was 1.62.
The value for LLKHPNIVRLHDSISQEGFHYLVF [E16Q] was 3.03.
Regarding LLKHPNIVRLHDSISEEGFHYAVF [L22A], the protein stability index worked out at 3.02.
As for LLKHPNIVRLHDSISEEGFHYRVF [L22R], the protein stability index stood at 1.28.
For LLKHPNIVRLHDSISEEGFHYIVF [L22I], the protein stability index was 2.96.
Then LLKHPNIVRLHDSISEEGFHYEVF [L22E], with 2.22.
Regarding LLKHPNIVRLHDSISEEGFHYSVF [L22S], the protein stability index was found to be 1.81.
LLKHPNIVRLHDSISEEGFHYHVF [L22H]: the protein stability index amounted to 2.19.
Regarding LLKHPNIVRLHDSISEEGFHYFVF [L22F], the protein stability index turned out to be 2.36.
Consider LLKHPNIVRLHDSISEEGFHYPVF [L22P], for which the protein stability index came to 1.81.
LLKHPNIVRLHDSISEEGFHYYVF [L22Y]: the protein stability index is 2.02.
With LLKHPNIVRLHDSISEEGFHYNVF [L22N], the protein stability index was determined as 1.75.
The value for LLKHPNIVRLHDSISEEGFHYWVF [L22W] was 1.88.
As for LLKHPNLVRLHDSISEEGFHYLVF [I7L], the protein stability index was determined as 2.98.
Take LLKHPNEVRLHDSISEEGFHYLVF [I7E]: the protein stability index stood at 2.67.
Then LLKHPNWVRLHDSISEEGFHYLVF [I7W], with 1.07; and LLKHPNFVRLHDSISEEGFHYLVF [I7F], with 2.39; and LLKHPNMVRLHDSISEEGFHYLVF [I7M], with 3.55.
With LLKHPNTVRLHDSISEEGFHYLVF [I7T], the protein stability index was determined as 2.19.
With LLKHPNNVRLHDSISEEGFHYLVF [I7N], the protein stability index was 3.17.
Then LLKHPNRVRLHDSISEEGFHYLVF [I7R], with 2.02.
For the variant LLKHPNHVRLHDSISEEGFHYLVF [I7H], the protein stability index came out at 3.65.
Then LLKHPNIVRLHDSISEEGEHYLVF [F19E], with 2.38.
Consider LLKHPNIVRLHDSISEEGRHYLVF [F19R], for which the protein stability index was determined as 2.02.
On to LLKHPNIVRLHDSISEEGAHYLVF [F19A], for which the protein stability index was determined as 1.81.
Consider LLKHPNIVRLHDSISEEGYHYLVF [F19Y], for which the protein stability index turned out to be 2.08.
LLKHPNIVRLHDSISEEGCHYLVF [F19C]: the protein stability index was 1.37.
With LLKHPNIVRLHDSISEEGGHYLVF [F19G], the protein stability index was 1.23.
As to LLKHPNIVRLHDSISEEGNHYLVF [F19N], the protein stability index stood at 2.03.
Take LLKHPNIVRLHDSISEEGPHYLVF [F19P]: the protein stability index stood at 1.53.
Then LLNHPNIVRLHDSISEEGFHYLVF [K3N], with 2.22; and LLIHPNIVRLHDSISEEGFHYLVF [K3I], with 2.71.
The value for LLDHPNIVRLHDSISEEGFHYLVF [K3D] was 2.74.
For LLMHPNIVRLHDSISEEGFHYLVF [K3M], the protein stability index amounted to 1.77.
As to LLSHPNIVRLHDSISEEGFHYLVF [K3S], the protein stability index amounted to 1.79.
For the variant LLPHPNIVRLHDSISEEGFHYLVF [K3P], the protein stability index amounted to 2.1.
Take LLEHPNIVRLHDSISEEGFHYLVF [K3E]: the protein stability index was 2.16.
Consider LLCHPNIVRLHDSISEEGFHYLVF [K3C], for which the protein stability index was found to be 3.78.
LLTHPNIVRLHDSISEEGFHYLVF [K3T]: the protein stability index worked out at 1.52.
Turning to LLAHPNIVRLHDSISEEGFHYLVF [K3A], the protein stability index was determined as 2.38.
For LLHHPNIVRLHDSISEEGFHYLVF [K3H], the protein stability index stood at 1.44.
LLKHPNIVPLHDSISEEGFHYLVF [R9P]: the protein stability index came out at 2.45.
Then LLKHPNIVQLHDSISEEGFHYLVF [R9Q], with 2.17.
Consider LLKHPNIVCLHDSISEEGFHYLVF [R9C], for which the protein stability index was found to be 3.88.
Regarding LLKHPNIVFLHDSISEEGFHYLVF [R9F], the protein stability index was 1.26.
For the variant LLKHPNIVDLHDSISEEGFHYLVF [R9D], the protein stability index stood at 3.18.
As to LLKHPNIVYLHDSISEEGFHYLVF [R9Y], the protein stability index was determined as 2.87.
On to LLKHPNIVNLHDSISEEGFHYLVF [R9N], for which the protein stability index was found to be 2.7.
The value for LLKHPNIVKLHDSISEEGFHYLVF [R9K] was 3.39; that for LLKHPNIVGLHDSISEEGFHYLVF [R9G] was 1.79; that for LLKHPNIVRLHDSISECGFHYLVF [E17C] was 2.99.
The value for LLKHPNIVRLHDSISEQGFHYLVF [E17Q] was 1.84.
Take LLKHPNIVRLHDSISEPGFHYLVF [E17P]: the protein stability index amounted to 2.75.
For the variant LLKHPNIVRLHDSISENGFHYLVF [E17N], the protein stability index amounted to 3.79.
The value for LLKHPNIVRLHDSISEDGFHYLVF [E17D] was 2.66; that for LLKHPNIVRLHDSISEFGFHYLVF [E17F] was 2.27; that for LLKHPNIVRLHDSISEAGFHYLVF [E17A] was 2.91.
Take LLKHPNIVRLHDSISEEGFHYLVL [F24L]: the protein stability index stood at 2.94.
Turning to LLKHPNIVRLHDSISEEGFHYLVW [F24W], the protein stability index is 1.22.
Take LLKHPNIVRLHDSISEEGFHYLVG [F24G]: the protein stability index came to 2.47.
Then LLKHPNIVRLHDSISEEGFHYLVV [F24V], with 2.12.
Then LLKHPNIVRLHDSISEEGFHYLVA [F24A], with 1.62; and LLKHPNIVRLHDSISEEGFHYLVD [F24D], with 2.21; and LLKHPNIVRLHDSISEEGFHYLVK [F24K], with 1.71.
Then LLKHPNIVRLHDSISEEFFHYLVF [G18F], with 2.73; and LLKHPNIVRLHDSISEETFHYLVF [G18T], with 1.87; and LLKHPNIVRLHDSISEECFHYLVF [G18C], with 1.98.
Take LLKHPNIVRLHDSISEESFHYLVF [G18S]: the protein stability index worked out at 2.3.
The value for LLKHPNIVRLHDSISEERFHYLVF [G18R] was 3.12.
With LLKHPNIVRLHDSDSEEGFHYLVF [I14D], the protein stability index came out at 1.64.
For the variant LLKHPNIVRLHDSPSEEGFHYLVF [I14P], the protein stability index amounted to 2.74.
For the variant LLKHPNIVRLHDSCSEEGFHYLVF [I14C], the protein stability index stood at 2.44.
With LLKHPNIVRLHDSMSEEGFHYLVF [I14M], the protein stability index came out at 1.18.
Turning to LLKHPNIVRLHDSWSEEGFHYLVF [I14W], the protein stability index came to 1.4.
Then LLKHPNIVRLHDSRSEEGFHYLVF [I14R], with 1.75; and LLKHPNIVRLHDSHSEEGFHYLVF [I14H], with 1.11; and LLKHPNIVRLHDSTSEEGFHYLVF [I14T], with 1.91.
Turning to LLKHPNIVRLHDSVSEEGFHYLVF [I14V], the protein stability index worked out at 2.11.
On to LLKHPNIVRLHDSGSEEGFHYLVF [I14G], for which the protein stability index worked out at 1.64.
Consider LLKHPNIVRLHDSSSEEGFHYLVF [I14S], for which the protein stability index was determined as 2.15.
